Nine molecules from US9512220 (dated 2016) can be followed below.

For one assay, the target named is T1, Angiopoietin 2 (UniProt O15123).
T1 chain: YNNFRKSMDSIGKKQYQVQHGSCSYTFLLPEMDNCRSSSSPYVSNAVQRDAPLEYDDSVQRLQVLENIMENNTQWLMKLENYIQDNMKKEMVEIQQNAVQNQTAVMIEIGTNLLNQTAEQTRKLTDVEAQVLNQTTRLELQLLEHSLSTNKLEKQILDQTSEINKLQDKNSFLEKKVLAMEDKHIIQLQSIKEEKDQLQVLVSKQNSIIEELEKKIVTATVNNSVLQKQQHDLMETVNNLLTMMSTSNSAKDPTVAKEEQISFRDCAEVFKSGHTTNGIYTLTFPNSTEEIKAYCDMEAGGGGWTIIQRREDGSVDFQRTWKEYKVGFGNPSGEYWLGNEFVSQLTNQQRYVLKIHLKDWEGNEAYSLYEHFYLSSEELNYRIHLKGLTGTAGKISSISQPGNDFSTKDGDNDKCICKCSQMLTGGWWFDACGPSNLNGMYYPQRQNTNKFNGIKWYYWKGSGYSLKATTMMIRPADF
Kind of assay: competition, blocking Tie-2.

Another assay addresses T2, Angiopoietin 1 (UniProt Q15389).
T2 chain: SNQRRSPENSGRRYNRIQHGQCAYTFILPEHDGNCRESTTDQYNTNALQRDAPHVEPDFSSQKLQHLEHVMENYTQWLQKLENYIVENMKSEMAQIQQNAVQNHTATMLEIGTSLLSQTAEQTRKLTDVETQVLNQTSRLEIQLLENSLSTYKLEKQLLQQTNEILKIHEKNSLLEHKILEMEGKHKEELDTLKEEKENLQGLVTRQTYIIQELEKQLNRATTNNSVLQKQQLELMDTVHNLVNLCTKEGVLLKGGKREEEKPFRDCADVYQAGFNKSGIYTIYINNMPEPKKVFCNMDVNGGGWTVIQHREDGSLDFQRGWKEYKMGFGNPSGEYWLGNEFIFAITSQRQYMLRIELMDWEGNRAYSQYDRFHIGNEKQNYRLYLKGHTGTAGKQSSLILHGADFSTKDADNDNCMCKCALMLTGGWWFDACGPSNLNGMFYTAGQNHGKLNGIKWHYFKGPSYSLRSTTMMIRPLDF
Description: competition, blocking Tie-2.

Substitutions are numbered along the chain they refer to.

B1: HC14/LC14 (antibody, V domains shown)
VH: EVQLLESGGGLVQPGGSLGLSCAASGFTLSNYDMSWVRQAPGKGLEWVSWISPDSSSTYYADSVKGRFTISRDNSKNTLYLQMNSLRAEDTAVYYCARSVMPFDYWGQGTLVTVSS
VL: QSVLTQPPSASGTPGQRVTISCSGSSSNIGSNAVYWYQQLPGTAPKLLIYDDSKRPSGVPDRFSGSKSGTSASLAIGGLRSEDEADYYCGAWDDSLSAYVFGGGTKLTVL
Broadly, the IC50 is the concentration that gives 50% inhibition. The low end stands for higher potency, the high end for lower potency. B1: the 50% inhibitory concentration (IC50) with Angiopoietin 2 is 0.08 nM; in the assay with Angiopoietin 1, 0.74 nM.

B2: HC16/LC16 (antibody, V domains shown)
VH: EVQLLESGGGLVQPGGSLRLSCAASGFTFSDYYMSWVRQAPGKGLEWVSSISYDDGSRKYYADSGKRSVTISRDNSKNTLYLQMNSLRAEDTAVYYCARDRSTLRLDSFDYWGQGTLVTVSS
VL: B1 VL with Q16R, S27P, S31N, A33T, Y35N, D51S, K54H, G77S, D94Y, S97N
As to B2, the figures for the IC50 with Angiopoietin 2 and with Angiopoietin 1 were 0.32 nM and 0.26 nM, respectively.

B3: HC22/LC22 (antibody, V domains shown)
VH: EVQLVQSGAEVKKPGASVKVSCKASGGTFSSYAISWVRQAPGQGLEWMGGIIPIFGTANYAQKFQGRVTITADESTSTAYMELSSLRSEDTAVYYCARGGSGRFDYWGQGTLVTVSS
VL: QSALTQPASVSGSPGESIIISCTGTSSDVGAYNYVSWYQQHLGKAPKLMIYDVSQRPSGVSDRFSGSKSGNTASLTISGLQAEDEADYYCSSFTGDSVIFGGGTKLTVL
Take B3: the concentration for half-maximal inhibition (IC50) was 0.03 nM with Angiopoietin 2 and 0.24 nM in the assay with Angiopoietin 1.

B4: HC2/LC2 (antibody, V domains shown)
VH: EVQLLESGGGLVQPGGSLRLSCAASGFTFSNYAMSWVRQAPGKGLEWVSVISPGSGNTYYADSVKGRFTISRDNSKNTLYLQMNSLRAEDTAVYYCAKGALKCRHRSCSSYNAMDVWGQGTLVTVSS
VL: QSVLTQPPSASGTPGQRVTISCTGSSSNIGNNDVSWYQQLPGTAPKLLIYDNNHRPSGVPDRFSGSKSGTSASLAISGLRSEDEADYYCGTWDASLNGYVFGGGTKLTVL
For the molecule B4, the IC50 in the assay with Angiopoietin 2 was 0.06 nM; with Angiopoietin 1, 0.23 nM.

B5: HC4/LC4 (antibody, V domains shown)
VH: EVQLLESGGGLVQPGGSLRLSCAASGFTFSNYAMSWVRQAPGKGLEWVSAISHGGSSKYYADSVKGRFTISRDNSKNTLYLQMNSLRAEDTAVYYCARDRTASLLDGFDYWGQGTLVTVSS
VL: B4 VL with T23S, D33Y, S35N, D51A, N52D, N53S, H54N, N97S
On to B5, for which the IC50 in the assay with Angiopoietin 2 is 1.35 nM; in the assay with Angiopoietin 1 it was 0.26 nM.

B6: HC8/LC8 (antibody, V domains shown)
VH: EVQLLESGGGLVQPGGSLRLSCAASGFTFSNYSMSWVRQAPGKGLEWVSAISPGNGNKYYADSVKGRFTISRDNSKNTLYLQMNSLRAEDTAVYYCAKGLSSLLLVGFDYWGQGTLVTVSS
VL: B4 VL with T23S, D51S, N52D, N53S, H54Q, T91S
With B6, the IC50 came out at 0.2 nM with Angiopoietin 2 and 0.21 nM with Angiopoietin 1.

B7: HC10/LC10 (antibody, V domains shown)
VH: EVQLVESGGGLVQPGGSLRLSCAASGFTFSNYAMSWVRQAPGKGLEWVSWIYPDNGNTYYADSVKGRFTISRDNSKNTLYLQMNSLRAEDTAVYYCAKYSLDKYTPWPYSYYGMDVWGQGTLVTVSS
VL: B4 VL with D33A, S35T, N52D, N53S, V59A, N97S, G98A
Turning to B7, the figures for the 50% inhibitory concentration (IC50) in the assay with Angiopoietin 2 and with Angiopoietin 1 were 1.22 nM and 0.19 nM, respectively.

B8: HC18/LC18 (antibody, V domains shown)
VH: B1 VH with G19R, L29F, N31D, S55D, S56G, T58I, M101L
VL: B1 VL with G77S, L79F, A91S, D94A, S97N
In the case of B8, the IC50 with Angiopoietin 2 was found to be 2.85 nM; with Angiopoietin 1, 0.24 nM.

B9: HC12/LC12 (antibody, V domains shown)
VH: B4 VH
VL: B4 VL
Take B9: the IC50 in the assay with Angiopoietin 2 is 0.04 nM; with Angiopoietin 1, 0.38 nM.
